Values of other authors as cited in PMC10339233.

Molecular target: thrombomodulin EGF-like domains 4-6 (Homo sapiens) (UniProt P07204)
Test: SPR

Kd: 4 nM
Substance: thrombin (from UniProt P00734)
